Patent US20220041658A1 (PROTAGONIST THERAPEUTICS, published 2022)
Each block holds one binder with its values, some of them ahead of it. Positions of bridges follow the written chain, without caps; N, C: chain ends. Non-standard residues stand in square brackets, D forms with d. Trp(7-Me) = Cc1cccc2c(C[C@H](N)C(=O)O)c[nH]c12; 2Nal = N[C@@H](Cc1ccc2ccccc2c1)C(=O)O; AEF = NCCOc1ccc(C[C@H](N)C(=O)O)cc1; Cit = NC(=O)NCCC[C@H](N)C(=O)O; αMeL = CC(C)C[C@](C)(N)C(=O)O; Pen = CC(C)(S)[C@H](N)C(=O)O; αMeK = C[C@](N)(CCCCN)C(=O)O; βAla = NCCC(=O)O

Columns and labels:
[1] = molecular target: T1, interleukin-23 receptor (IL-23R) (human, UniProt Q5VWK5 24-629); test: cell-based or functional assay
T1 sequence (looked up): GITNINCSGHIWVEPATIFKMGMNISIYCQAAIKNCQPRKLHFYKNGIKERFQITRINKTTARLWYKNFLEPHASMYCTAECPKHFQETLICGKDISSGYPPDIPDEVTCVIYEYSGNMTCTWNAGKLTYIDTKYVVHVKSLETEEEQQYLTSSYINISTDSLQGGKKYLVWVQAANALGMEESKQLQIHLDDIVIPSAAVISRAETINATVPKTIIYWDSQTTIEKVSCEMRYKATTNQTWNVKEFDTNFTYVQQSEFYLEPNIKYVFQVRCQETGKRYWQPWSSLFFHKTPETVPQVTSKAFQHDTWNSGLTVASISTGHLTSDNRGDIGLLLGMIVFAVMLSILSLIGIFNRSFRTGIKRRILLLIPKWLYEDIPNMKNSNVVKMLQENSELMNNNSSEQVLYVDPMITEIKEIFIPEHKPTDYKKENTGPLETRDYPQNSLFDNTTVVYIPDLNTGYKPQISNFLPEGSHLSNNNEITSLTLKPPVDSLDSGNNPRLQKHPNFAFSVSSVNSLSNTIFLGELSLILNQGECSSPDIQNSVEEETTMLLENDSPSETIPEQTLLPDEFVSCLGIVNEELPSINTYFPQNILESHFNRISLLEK

[2] = molecular target: T1, interleukin-23 receptor (IL-23R); test: cell-based or functional assay; remark: listed apart in the source

B1: Peptide of SEQ ID NO: 203 (peptide)
peptide: RXQTXQCXXXENX
modifications: Ac-[(D)Arg]-Abu-Q-T-[W(7-Me)]-Q-C-Phe[4-(2-aminoethoxy)]-[2-Nal]-[THP]-E-N-[bA]-NH2; Abu-Cys thioether
- pStat3 HTRF IC50 [1]: 1.84 nM
- NK Cell Assay IC50 [2]: 2.3 nM

Binder: Ac-[Pen]NT[Trp(7-Me)][Cit][Pen][AEF][2Nal][αMeL]K(Ac)N[βAla]-NH2 (disulfide 1-6) [Peptide of SEQ ID NO: 227]
- pStat3 HTRF IC50 [1]: 0.702 nM
- NK Cell Assay IC50 [2]: 2.95 nM

B4: Peptide of SEQ ID NO: 208 (peptide)
peptide: XNTXQXXXXKLX
modifications: Ac-[Pen]-NT-[W(7-Me)]-Q-[Pen]-Phe[4-(2-aminoethoxy)]-[2-Nal]-[a-MeLeu]-[Lys(Ac)]-L-[bA]-NH2; Pen-Pen disulfide
- pStat3 HTRF IC50 [1]: 5.39 nM
- NK Cell Assay IC50 [2]: 7.8 nM

B7: Peptide of SEQ ID NO: 218 (peptide)
peptide: XNTXQXXXXKTX
modifications: Ac-[Pen]-NT-[W(7-Me)]-Q-[Pen]-Phe[4-(2-aminoethoxy)]-[2-Nal]-[a-MeLeu]-[Lys(Ac)]-[(D)Thr]-[bA]-NH2; Pen-Pen disulfide
- pStat3 HTRF IC50 [1]: 11 nM
- NK Cell Assay IC50 [2]: 50.2 nM

B9: Peptide of SEQ ID NO: 215 (peptide)
peptide: XNTXQXXXXKHX
modifications: Ac-[Pen]-NT-[W(7-Me)]-Q-[Pen]-Phe[4-(2-aminoethoxy)]-[2-Nal]-[a-MeLeu]-[Lys(Ac)]-[(D)His]-[bA]-NH2; Pen-Pen disulfide
- pStat3 HTRF IC50 [1]: 4.94 nM
- NK Cell Assay IC50 [2]: 20 nM

B10: Peptide of SEQ ID NO: 224 (peptide)
peptide: XNTXQXXXXKXX
modifications: Ac-[Pen]-NT-[W(7-Me)]-Q-[Pen]-Phe[4-(2-aminoethoxy)]-[2-Nal]-[a-MeLeu]-[Lys(Ac)]-[Sarc]-[bA]-NH2; Pen-Pen disulfide
- pStat3 HTRF IC50 [1]: 124 nM
- NK Cell Assay IC50 [2]: > 500 nM

B11: Peptide of SEQ ID NO: 223 (peptide)
peptide: XNTXQXXXXKXX
modifications: Ac-[Pen]-NT-[W(7-Me)]-Q-[Pen]-Phe[4-(2-aminoethoxy)]-[2-Nal]-[a-MeLeu]-[Lys(Ac)]-[N-MeAla]-[bA]-NH2; Pen-Pen disulfide
- pStat3 HTRF IC50 [1]: 134 nM
- NK Cell Assay IC50 [2]: 8.3 nM

B15: Peptide of SEQ ID NO: 232 (peptide)
peptide: XNTXQXXXXKNX
modifications: Ac-[Pen]-NT-[W(1-Me)]-Q-[Pen]-Phe[4-(2-aminoethoxy)]-[2-Nal]-[a-MeLys]-[Lys(Ac)]-N-[bA]-NH2; Pen-Pen disulfide
- pStat3 HTRF IC50 [1]: 4.5 nM
- NK Cell Assay IC50 [2]: 9 nM

B16: Peptide of SEQ ID NO: 207 (peptide)
peptide: XNTXQXXXXKAX
modifications: Ac-[Pen]-NT-[W(7-Me)]-Q-[Pen]-Phe[4-(2-aminoethoxy)]-[2-Nal]-[a-MeLeu]-[Lys(Ac)]-A-[bA]-NH2; Pen-Pen disulfide
- pStat3 HTRF IC50 [1]: 1.46 nM
- NK Cell Assay IC50 [2]: 8.4 nM

Now from value to binder:

- pStat3 HTRF IC50 [1]: 0.107 nM
- NK Cell Assay IC50 [2]: 3.81 nM
B2: Peptide of SEQ ID NO: 362 (peptide)
peptide: XNTXKXXXXXNL
modifications: Ac-[Pen]-N-T-[W(7-Me)]-[Lys(Ac)]-[Pen]-Phe[4-(2-aminoethoxy)]-[2-Nal]-[a-MeLys]-[Lys(PEG3-OMe)]-N-[(D)Leu]-NH2; Pen-Pen disulfide

- pStat3 HTRF IC50 [1]: 0.338 nM
- NK Cell Assay IC50 [2]: 3.32 nM
B3: Peptide of SEQ ID NO: 252 (peptide)
peptide: XNTXKXXXXKNK
modifications: Ac-[Pen]-NT-[W(7-Me)]-[Lys(Ac)]-[Pen]-Phe[4-(2-aminoethoxy)]-[2-Nal]-[a-MeLys]-[Lys(Ac)]-N-[(D)Lys]-NH2; Pen-Pen disulfide

- pStat3 HTRF IC50 [1]: 0.51 nM
- NK Cell Assay IC50 [2]: 2.7 nM
B5: Peptide of SEQ ID NO: 245 (peptide)
peptide: XNTXKXXXXKNL
modifications: Ac-[Pen]-NT-[W(7-Me)]-[Lys(Ac)]-[Pen]-Phe[4-(2-aminoethoxy)]-[2-Nal]-[a-MeLys]-[Lys(Ac)]-N-[(D)Leu]-NH2; Pen-Pen disulfide

- pStat3 HTRF IC50 [1]: 3.21 nM
- NK Cell Assay IC50 [2]: 10.2 nM
Binder: Ac-[Pen]NT[Trp(7-Me)][αMeL][Pen][AEF][2Nal][αMeK]K(Ac)N[βAla]-NH2 (disulfide 1-6) [Peptide of SEQ ID NO: 235]

- pStat3 HTRF IC50 [1]: 0.596 nM
- NK Cell Assay IC50 [2]: 1.47 nM
B6: Peptide of SEQ ID NO: 361 (peptide)
peptide: XNTXKXXXXXNL
modifications: Ac-[Pen]-N-T-[W(7-Me)]-[Lys(Ac)]-[Pen]-Phe[4-(2-aminoethoxy)]-[2-Nal]-[a-MeLys]-[Lys(valeric)]-N-[(D)Leu]-NH2; Pen-Pen disulfide

- pStat3 HTRF IC50 [1]: 3.48 nM
- NK Cell Assay IC50 [2]: 7.7 nM
B8: Peptide of SEQ ID NO: 234 (peptide)
peptide: XNTXXXXXXKNX
modifications: Ac-[Pen]-NT-[W(7-Me)]-[a-MeLys]-[Pen]-Phe[4-(2-aminoethoxy)]-[2-Nal]-[a-MeLeu]-[Lys(Ac)]-N-[bA]-NH2; Pen-Pen disulfide

- pStat3 HTRF IC50 [1]: 0.725 nM
- NK Cell Assay IC50 [2]: 4.97 nM
B12: Peptide of SEQ ID NO: 359 (peptide)
peptide: XNTXKXXXXXNL
modifications: not fully specified; Ac-[Pen]-N-T-[W(7-Me)]-[Lys(Ac)]-[Pen]-Phe[4-(2-aminoethoxy)]-[2-Nal]-[a-MeLys]-[Lys(benzyl)]-N-[(D)Leu]-NH2; Pen-Pen disulfide

- pStat3 HTRF IC50 [1]: 5.21 nM
- NK Cell Assay IC50 [2]: 5.82 nM
B13: Peptide of SEQ ID NO: 236 (peptide)
peptide: XNTXQXXXXXNX
modifications: Ac-[Pen]-NT-[W(7-Me)]-Q-[Pen]-Phe[4-(2-aminoethoxy)]-[2-Nal]-[a-MeLys]-[Aib]-N-[bA]-NH2; Pen-Pen disulfide

- pStat3 HTRF IC50 [1]: 0.986 nM
- NK Cell Assay IC50 [2]: 8.19 nM
B14: Peptide of SEQ ID NO: 251 (peptide)
peptide: XNTXKXXXXKNV
modifications: Ac-[Pen]-NT-[W(7-Me)]-[Lys(Ac)]-[Pen]-Phe[4-(2-aminoethoxy)]-[2-Nal]-[a-MeLys]-[Lys(Ac)]-N-[(D)Val]-NH2; Pen-Pen disulfide
